From publication PMC9348755 (Science (New York, N.y.), 2022) come the findings set out here.

The target in the experiment is prefusion PentaPro (F817) SARS-CoV-2 S2 (SARS-CoV-2 (Wuhan-Hu-1 assumed), UniProt P0DTC2, stabilised). The experiment can be described thus: ELISA. Conditions: both partners purified. (In an ELISA, binding on a coated surface is turned into a signal by an enzyme label.)

B1: C13B8 mAb (antibody, V domains shown)
VH: QVQLQESGPGLVQPSQTLTLTCTVSGDSISNEDYHWTWIRQHPGKGLEWMGYLQYSGNTNYNPSLKSRMTISVDTSKNQFSLRLNSVTAADTAVYFCATSIVLTGMSNKIQPFDYWGQGTLVTVSS
VL: SYELTQPPSVSVSPGQMARITCSGEALPKKYAYWYQQKGGQFPVLVIYKDTERPSGIPERFSGSSSGTIVTLTISGVQPEDEADYYCLSADTSGTWVFGGGTKLTVL
notes: also called Group 3 mAb; fusion peptide-specific mAb
Take B1: the binding result is given as “binds”.

B2: C13C9 mAb (antibody, V domains shown)
VH: EVQLVQSGPEVKKPGTSARVSCKASGFTSKNTALQWVRQARGQPLEWMGWIDISNYITNYAQKFRGRLTITWDLSASMAYMELSSLRSEDTAVYYCAAVGKDDDVLTGGNKYFDHWGQGTLVTVSS
VL: SYELTQPPSVSVSPGQTARITCSGDALPKKYAYWYQQKSGQAPVLVIHEDDKRPSGIPGRFSASSSGTTATLTISGAQVEDEADYYCYSTDTNDNHAFGSGTKLTVL
notes: as for B1
For the molecule B2, the binding result is given as “binds”.

B3: C77G12 mAb (antibody, V domains shown)
VH: EVQLVESGGGVVQPGRSLRISCAVSGFTFGSYAMHWVRQAPGKGLEWVGVMSSDGHNEYYADSVKGRFTISRDNSRNKLYLEMNNLRVDDTAVFYCARGSDYVDDSPPLHYWGQGTLVTVSS
VL: DIQLTQSPSSLSASIGDRVTITCRASQDIANKLAWFQQAPGKAPKSLIYAASRLQSGVPSQFSGSGSGTDFTLTIESLQAGDFATYFCQQYDSFPFTFGPGTKVDVK
notes: as for B1
In the case of B3, the binding result is on record as “binds”.

B4: VN01H1 mAb (antibody, V domains shown)
VH: EVQLVESGGGLVLPGGSLRLSCSASGFTFSDFSMHWVRQSPGKGLEYVSAITSSGSSTYYPDSVKGRFTISRDNSKNTLYLQMGSLRVEDTAVYWCVKNSDVFRFPHLYFDVWGRGTLVTVSS
VL: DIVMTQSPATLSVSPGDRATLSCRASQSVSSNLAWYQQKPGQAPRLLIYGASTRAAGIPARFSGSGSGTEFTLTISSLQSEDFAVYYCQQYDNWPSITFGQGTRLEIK
notes: as for B1
As to B4, the binding result was “binds”.

B5: VP12E7 mAb (antibody, V domains shown)
VH: QVQLVQSGGGVVQPGESLRLSCSGSGFTFNNYIMHWVRQAPGQGLDYVSGIGSDGRNTNYGDSVKGRFTISRDNSKDTLYLQMTSLRAEDTAFYYCVKGLDVLRFLDLSTPSGERLDAFDIWGQGTMVTVSS
VL: DIVMTQSPSFLSASVGDRVTITCRASQGISNYLAWYQQKPGKAPHLLIYAASTLQSGVPSRFSGSGSGTEFTLTISSLQPEDFATYYCQQLNSYPLFTFGPGTKVDIE
notes: as for B1
B5: the binding result is given as “binds”.
